We go through 2 molecules from patent US6469155 (UNIVERSITA DEGLI STUDI DI BOLOGNA, dated 2002).

Sequences and labels used below:
B1: HSV-1 glycoprotein D purified from HSV-1-infected BHK cells (ligand)
chain: KYALVDASLKMADPNRFRGKDLPVLDQLTDPPGVRRVYHIQAGLPDPFQPPSLPITVYYAVLERACRSVLLNAPSEAPQIVRGASEDVRKQPYNLTIAWFRMGGNCAIPITVMEYTECSYNKSLGACPIRTQPRWNYYDSFSAVSEDNLGFLMHAPAFETAGTYLRLVKINDWTEITQFILEHRAKGSCKYALPLRIPPSACLSPQAYQQGVTVDSIGMLPRFIPENQRTVAVYSLKIAGWHGPKAPYTSTLLPPELSETPNATQPELAPEDPEDSALLEDPVGTVAPQIPPNWHIPSIQDAATPYHPPATPNNMGLIAGAVGGSLLAALVICGIVYWMRRHTQKAPKRIRLPHIREDDQPSSHQPLFY
notes: also called gD; HSV gD
B2: sV(HIgR)-Fc (Fc fusion)
chain: QVVQVNDSMYGFIGTDVVLHCSFANPLPSVKITQVTWQKSTNGSKQNVAIYNPSMGVSVLAPYRERVEFLRPSFTDGTIRLSRLELEDEGVYICGFATFPTGNRESQLNLTVMA
notes: Made in COS1 cells and purified on protein A; also called V1-Fc; soluble V domain of HIgR/PRR1; not shown: IgG Fc (Fc portion of human IgG1) from the Cos Fc Link (CFL) vector

The target in assay [1] is T1, BSA (UniProt P02769 25-607).
T1 construct: Unrelated control molecule
The assay can be described thus: ELISA on immobilized gD. For orientation: An ELISA detects its analyte on a solid surface through an enzyme-linked reagent.

Assay [2] addresses B1. In words: ELISA, gD immobilized, detection with anti-human IgG-peroxidase.

T1 sequence (P02769 25-607 limits assumed): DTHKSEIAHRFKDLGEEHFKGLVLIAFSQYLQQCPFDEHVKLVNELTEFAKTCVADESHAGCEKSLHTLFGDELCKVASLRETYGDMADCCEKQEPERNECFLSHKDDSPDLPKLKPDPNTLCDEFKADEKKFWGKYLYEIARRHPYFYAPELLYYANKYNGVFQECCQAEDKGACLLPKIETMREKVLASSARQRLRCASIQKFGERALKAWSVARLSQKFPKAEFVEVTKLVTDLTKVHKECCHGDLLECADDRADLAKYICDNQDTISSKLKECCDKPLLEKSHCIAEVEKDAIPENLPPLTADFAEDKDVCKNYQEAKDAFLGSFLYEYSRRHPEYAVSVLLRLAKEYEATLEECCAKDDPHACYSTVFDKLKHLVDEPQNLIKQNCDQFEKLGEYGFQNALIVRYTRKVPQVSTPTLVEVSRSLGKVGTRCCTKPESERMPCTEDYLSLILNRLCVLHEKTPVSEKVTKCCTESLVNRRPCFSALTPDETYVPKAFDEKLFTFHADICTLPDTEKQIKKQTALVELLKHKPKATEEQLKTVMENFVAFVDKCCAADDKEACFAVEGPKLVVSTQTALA

Consider B1, for which the binding result in assay [1] was “no binding”. With B2, the “reduction in the level of saturable binding relative to sVCC(HIgR)-Fc” value in assay [2] was roughly 30%.
